Laboratory results from patent EP1789452B1, “RELAXIN-CHIMERIC POLYPEPTIDES AND THEIR PREPARATION AND USE” (Janssen Pharmaceutica NV, priority 2004, dated 2006).

Experiments:
[1] = target: human LGR7 (human) (UniProt Q9HBX9); assay: cell-based or functional assay
[2] = target: human LGR8 (human) (UniProt Q8WXD0); assay: cell-based or functional assay
[3] = target: rat GPCR135 (rat) (UniProt Q5Y987); assay: competition with 100 pM [125I] human R3, COS-7 membranes with rat GPCR135
[4] = target: rat LGR7 (rat) (UniProt Q6R6I6); assay: competition with 100 pM [125I] human relaxin-2, COS-7 membranes with rat LGR7
Chain of rat LGR7 (rat) (Q6R6I6 whole entry): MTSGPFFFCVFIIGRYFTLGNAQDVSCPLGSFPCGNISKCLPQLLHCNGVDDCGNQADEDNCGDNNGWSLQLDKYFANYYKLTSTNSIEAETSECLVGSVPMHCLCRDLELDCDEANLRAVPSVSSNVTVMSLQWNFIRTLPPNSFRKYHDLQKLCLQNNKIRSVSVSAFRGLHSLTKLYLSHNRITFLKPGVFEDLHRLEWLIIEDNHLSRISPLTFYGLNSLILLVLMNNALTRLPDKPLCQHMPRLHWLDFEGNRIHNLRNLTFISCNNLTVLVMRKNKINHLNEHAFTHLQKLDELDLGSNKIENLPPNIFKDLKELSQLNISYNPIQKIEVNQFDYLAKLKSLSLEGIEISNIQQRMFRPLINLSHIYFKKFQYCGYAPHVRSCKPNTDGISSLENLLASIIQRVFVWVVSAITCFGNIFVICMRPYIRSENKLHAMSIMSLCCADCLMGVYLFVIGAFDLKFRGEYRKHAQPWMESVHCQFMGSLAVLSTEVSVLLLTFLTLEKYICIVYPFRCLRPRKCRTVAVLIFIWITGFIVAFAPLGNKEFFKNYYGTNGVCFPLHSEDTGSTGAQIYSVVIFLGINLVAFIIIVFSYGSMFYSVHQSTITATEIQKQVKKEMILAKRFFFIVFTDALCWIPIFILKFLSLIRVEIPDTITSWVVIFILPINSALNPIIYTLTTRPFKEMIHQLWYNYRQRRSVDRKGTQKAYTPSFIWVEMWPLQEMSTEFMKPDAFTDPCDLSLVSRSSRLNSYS

Chain of human LGR8 (human) (Q8WXD0 whole entry): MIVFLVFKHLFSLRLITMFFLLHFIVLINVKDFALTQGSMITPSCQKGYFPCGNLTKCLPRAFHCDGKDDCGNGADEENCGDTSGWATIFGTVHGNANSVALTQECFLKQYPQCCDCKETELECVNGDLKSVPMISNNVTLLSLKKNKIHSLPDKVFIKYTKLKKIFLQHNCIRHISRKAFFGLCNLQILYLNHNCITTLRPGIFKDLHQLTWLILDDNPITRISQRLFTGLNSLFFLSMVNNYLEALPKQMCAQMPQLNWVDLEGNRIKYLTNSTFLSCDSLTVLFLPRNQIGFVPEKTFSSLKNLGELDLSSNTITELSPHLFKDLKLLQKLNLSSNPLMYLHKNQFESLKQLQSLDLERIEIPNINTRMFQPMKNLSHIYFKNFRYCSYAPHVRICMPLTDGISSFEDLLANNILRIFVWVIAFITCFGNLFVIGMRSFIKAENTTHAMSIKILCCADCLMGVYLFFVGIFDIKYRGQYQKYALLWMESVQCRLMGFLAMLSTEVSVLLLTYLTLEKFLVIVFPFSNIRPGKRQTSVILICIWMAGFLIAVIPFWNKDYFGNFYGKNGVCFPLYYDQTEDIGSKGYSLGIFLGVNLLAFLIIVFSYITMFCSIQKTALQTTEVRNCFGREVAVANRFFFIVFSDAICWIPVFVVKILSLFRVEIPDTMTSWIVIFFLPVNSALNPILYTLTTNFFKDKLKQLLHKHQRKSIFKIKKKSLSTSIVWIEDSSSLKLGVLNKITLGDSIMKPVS
Chain of human LGR7 (human) (Q9HBX9 whole entry): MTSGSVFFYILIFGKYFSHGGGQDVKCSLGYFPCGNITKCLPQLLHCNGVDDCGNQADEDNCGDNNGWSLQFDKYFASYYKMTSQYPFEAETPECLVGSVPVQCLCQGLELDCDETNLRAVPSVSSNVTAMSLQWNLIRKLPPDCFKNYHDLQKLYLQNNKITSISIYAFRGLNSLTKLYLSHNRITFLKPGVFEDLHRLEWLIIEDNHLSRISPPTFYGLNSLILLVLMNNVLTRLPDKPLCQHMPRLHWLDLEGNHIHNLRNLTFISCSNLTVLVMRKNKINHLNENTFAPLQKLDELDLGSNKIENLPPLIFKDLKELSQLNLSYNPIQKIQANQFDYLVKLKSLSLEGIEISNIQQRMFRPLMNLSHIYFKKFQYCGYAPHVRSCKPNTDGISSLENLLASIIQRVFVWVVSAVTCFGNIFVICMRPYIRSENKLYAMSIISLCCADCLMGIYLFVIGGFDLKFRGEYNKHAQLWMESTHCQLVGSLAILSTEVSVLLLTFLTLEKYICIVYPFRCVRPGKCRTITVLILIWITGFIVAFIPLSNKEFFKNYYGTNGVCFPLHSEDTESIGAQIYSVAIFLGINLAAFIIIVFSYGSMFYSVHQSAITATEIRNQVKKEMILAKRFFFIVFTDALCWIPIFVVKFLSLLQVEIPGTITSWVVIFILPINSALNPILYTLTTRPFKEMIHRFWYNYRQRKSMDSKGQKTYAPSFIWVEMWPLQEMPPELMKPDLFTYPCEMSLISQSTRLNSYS
Chain of rat GPCR135 (rat) (Q5Y987 entry or part of it): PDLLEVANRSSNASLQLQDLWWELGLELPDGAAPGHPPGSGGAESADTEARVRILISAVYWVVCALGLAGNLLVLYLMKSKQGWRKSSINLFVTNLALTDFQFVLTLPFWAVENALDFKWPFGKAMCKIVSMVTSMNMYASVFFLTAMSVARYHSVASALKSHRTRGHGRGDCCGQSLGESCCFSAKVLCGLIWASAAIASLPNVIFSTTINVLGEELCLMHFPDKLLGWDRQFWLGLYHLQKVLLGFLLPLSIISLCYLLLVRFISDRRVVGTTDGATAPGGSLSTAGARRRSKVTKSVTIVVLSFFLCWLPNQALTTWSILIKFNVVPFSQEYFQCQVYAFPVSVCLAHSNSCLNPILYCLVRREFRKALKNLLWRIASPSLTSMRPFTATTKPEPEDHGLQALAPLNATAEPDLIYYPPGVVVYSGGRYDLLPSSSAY

stimulation of β-galactosidase activity in SK-N-MC/β-gal cells, EC50 [1] | induction of β-galactosidase activity in SK-N-MC/β-gal cells, EC50 [2] | IC50 [3] | IC50 [4] | Substance
0.25 nM | 1.5 nM |  |  | porcine relaxin (from UniProt P01348 25-56; P01348 161-182) (ligand)
 |  | > 1000 nM | 0.2 nM | human relaxin (R1) (from UniProt P04808 26-53; P04808 162-185) (ligand)
